# Reference: patent publication US20210380710A1
# pEC50, pKd: −log10 of the molar value.
# Assays:
# [1] = molecular target: human CD20 on the cell surface (Raji, Ramos, Namalwa cells) (human) (UniProt P11836); test: cell-based or functional assay
# [2] = molecular target: human CD3 on the cell surface (Jurkat cells) (human) (UniProt P07766); test: flow cytometry on Jurkat cells
# [3] = molecular target: human CD3 on the cell surface (Jurkat cells) (human) (UniProt P07766); test: FACS affinity on Jurkat cells, FITC bead quantitation; parameters: Bmax: unit not given here
# [4] = molecular target: human CD20 on the cell surface (Raji, Ramos, Namalwa cells) (human) (UniProt P11836); test: flow cytometry on Raji cells
# [5] = molecular target: human CD20 on the cell surface (Raji, Ramos, Namalwa cells) (human) (UniProt P11836); test: FACS affinity on Ramos cells, FITC bead quantitation
# [6] = molecular target: PD-1.his (Homo sapiens (Human)) (UniProt Q15116); test: ELISA, antigen coated at 2 ug/mL, antibody 10 ug/ml; * specific binding
# UniProt Q15116, sequence (Q15116 25-170 limits assumed): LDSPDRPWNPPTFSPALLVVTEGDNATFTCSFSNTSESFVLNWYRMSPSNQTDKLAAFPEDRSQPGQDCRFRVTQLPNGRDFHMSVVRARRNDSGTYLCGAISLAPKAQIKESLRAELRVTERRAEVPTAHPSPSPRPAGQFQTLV
# [7] = molecular target: human CD20 on the cell surface (Raji, Ramos, Namalwa cells) (human) (UniProt P11836); test: flow cytometry on Raji cells, antibody 10 ug/ml
# [8] = molecular target: human CD3 on the cell surface (Jurkat cells) (human) (UniProt P07766); test: flow cytometry on Hut78 cells (target on Hut78 not given), antibody 10 ug/ml
# [9] = molecular target: human CD3 on the cell surface (Jurkat cells) (human) (UniProt P07766); test: flow cytometry on Jurkat cells, antibody 10 ug/ml
# [10] = molecular target: human CD20 on the cell surface (Raji, Ramos, Namalwa cells) (human) (UniProt P11836); test: flow cytometry on Ramos cells, antibody 10 ug/ml
# [11] = molecular target: human CD20 on the cell surface (Raji, Ramos, Namalwa cells) (human) (UniProt P11836); test: flow cytometry on Ramos cells, secondary antibody alone
# [12] = molecular target: human CD3 on the cell surface (Jurkat cells) (human) (UniProt P07766); test: flow cytometry on Hut78 cells (target on Hut78 not given), secondary antibody alone
# [13] = molecular target: human CD20 on the cell surface (Raji, Ramos, Namalwa cells) (human) (UniProt P11836); test: flow cytometry on Raji cells, secondary antibody alone
# [14] = molecular target: human CD3 on the cell surface (Jurkat cells) (human) (UniProt P07766); test: flow cytometry on Jurkat cells, secondary antibody alone
# UniProt P07766, sequence (P07766 23-207, chain 1 of 3): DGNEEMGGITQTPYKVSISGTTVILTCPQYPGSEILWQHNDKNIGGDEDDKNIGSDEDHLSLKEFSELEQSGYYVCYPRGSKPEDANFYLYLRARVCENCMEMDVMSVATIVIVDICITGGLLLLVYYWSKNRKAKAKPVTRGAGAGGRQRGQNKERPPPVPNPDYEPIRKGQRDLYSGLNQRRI
# UniProt P07766, sequence (P04234 22-171, chain 2 of 3, further chain): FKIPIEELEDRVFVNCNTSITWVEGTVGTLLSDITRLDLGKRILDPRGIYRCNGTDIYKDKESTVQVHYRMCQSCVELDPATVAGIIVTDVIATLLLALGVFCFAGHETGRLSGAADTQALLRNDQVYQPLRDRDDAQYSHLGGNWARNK
# UniProt P07766, sequence (P09693 23-182, chain 3 of 3, further chain): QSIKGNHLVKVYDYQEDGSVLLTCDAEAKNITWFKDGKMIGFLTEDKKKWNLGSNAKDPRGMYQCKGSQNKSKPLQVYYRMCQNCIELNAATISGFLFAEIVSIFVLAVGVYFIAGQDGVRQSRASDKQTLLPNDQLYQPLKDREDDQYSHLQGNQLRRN
# UniProt P11836, sequence (P11836 whole entry): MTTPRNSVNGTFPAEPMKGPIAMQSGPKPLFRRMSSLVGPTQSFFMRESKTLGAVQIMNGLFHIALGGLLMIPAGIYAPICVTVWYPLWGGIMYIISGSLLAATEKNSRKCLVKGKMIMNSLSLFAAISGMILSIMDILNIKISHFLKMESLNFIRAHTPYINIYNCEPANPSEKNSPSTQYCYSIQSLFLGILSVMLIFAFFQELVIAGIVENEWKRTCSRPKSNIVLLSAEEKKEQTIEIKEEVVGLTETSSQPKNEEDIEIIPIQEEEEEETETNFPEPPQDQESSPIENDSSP
substance,measurement,setting,value
BMK4 (REGN1979) (bispecific antibody),"EC50 of T cell activation (CD25 expression), CD4+ cells, in the presence of Raji cells",[1],0.006 nM
same,"EC50 of T cell activation (CD25 expression), CD8+ cells, in the presence of Raji cells",[1],0.0183 nM
same,"EC50 of bispecific antibody mediated cytotoxicity, NAMALWA, 4 hours FACS based cytotoxicity assay with CD8+ T cells",[1],0.0318 nM
same,"EC50 of bispecific antibody mediated cytotoxicity, NAMALWA, two hour calcein release assay with CD8+ T cells",[1],0.026 nM
same,"EC50 of bispecific antibody mediated cytotoxicity, Raji, 4 hours FACS based cytotoxicity assay with CD8+ T cells",[1],0.00312 nM
same,"EC50 of bispecific antibody mediated cytotoxicity, Raji, two hour calcein release assay with CD8+ T cells",[1],0.00269 nM
same,"EC50 of bispecific antibody mediated cytotoxicity, Ramos, two hour calcein release assay with CD8+ T cells",[1],0.00149 nM
same,pEC50,[2],8.06
same,Bmax,[3],1.1e-10
same,pKd,[3],7.52
same,pEC50,[4],7.39
same,Bmax,[5],6.8e-10
same,pKd,[5],7.17
Human IgG4K control (antibody),absorbance at 450 nm,[6],3.87
same,FACS MFI,[7],92
same,FACS MFI,[8],61
same,FACS MFI,[9],25
same,FACS MFI,[10],68
Human IgG4L control (antibody),FACS MFI,[8],38
same,FACS MFI,[9],22
same,FACS MFI,[10],63
"goat anti-human IgG Fc-PE (Jackson, 109-115-098) (antibody)",FACS MFI,[11],65
same,FACS MFI,[12],28
same,FACS MFI,[13],67
same,FACS MFI,[14],21
